Test results published in patent publication US20050181450A1, “Novel inositol 1,4,5-trisphosphate (IP3) receptor-binding protein and an IP3 indicator” (priority 2002, published 2005).

B1: His-IRBIT: purified His-tagged IRBIT expressed in Sf9 cells (protein)
chain: MSMPDAMPLPGVGEELKQAKEIEDAEKYSFMATVTKAPKKQIQFADDMQEFTKFPTKTGRRSLSRSISQSSTDSYSSAASYTDSSDDEVSPREKQQTNSKGSSNFCVKNIKQAEFGRREIEIAEQDMSALISLRKRAQGEKPLAGAKIVGCTHITAQTAVLIETLCALGAQCRWSACNIYSTQNEVAAALAEAGVAVFAWKGESEDDFWWCIDRCVNMDGWQANMILDDGGDLTHWVYKKYPNVFKKIRGIVEESVTGVHRLYQLSKAGKLCVPAMNVNDSVTKQKFDNLYCCRESILDGLKRTTDVMFGGKQVVVCGYGEVGKGCCAALKALGAIVYITEIDPICALQACMDGFRVVKLNEVIRQVDVVITCTGNKNVVTREHLDRMKNSCIVCNMGHSNTEIDVTSLRTPELTWERVRSQVDHVIWPDGKRVVLLAEGRLLNLSCSTVPTFVLSITATTQALALIELYNAPEGRYKQDVYLLPKKMDEYVASLHLPSFDAHLTELTDDQAKYLGLNKNGPFKPNYYRY
modifications: left off: small tags and cut ends
notes: purified His-tagged IRBIT expressed in Sf9 cells
B2: IRBIT-His: C-terminally His-tagged full-length IRBIT expressed in Escherichia coli (protein, UniProt O43865 1-530, looked up)
chain: B1 chain
modifications: full-length C-terminal His tag
notes: C-terminally His-tagged full-length IRBIT expressed in Escherichia coli
B3: GST-IRBIT: N-terminally GST-tagged full-length IRBIT expressed in Escherichia coli (protein, UniProt O43865 1-530, looked up)
chain: B1 chain
modifications: full-length N-terminal GST tag
notes: N-terminally GST-tagged full-length IRBIT expressed in Escherichia coli

Assays:
[1] = target: T1, GST-EL (IP3R) (Mus musculus, UniProt P11881, N1264K); experiment: [3H]IP3 binding to GST-EL
T1 construct: construct a GST-IP3R1 (1-2217) vector (termed GST-EL); made in house; host or cells: GST-EL: Sf9 cells; His-IRBIT: Sf9 cells or E. coli
Experimental: (A) 0.2 μg of GST-EL was incubated with 0.1, 1, or 10 μg of purified His-tagged IRBIT expressed in Sf9 cells or E. coli in a solution containing 50 mM Tris-HCl (pH 8.0), 1 mM EDTA, and 1 mM 2-mercaptoethanol, for 30 min on ice. Then 8.7 nM [^3H]IP3 (PerkinElmer Life Sciences) was added to the samples and incubated for 10 min on ice (total volume was 50 μl). The samples were mixed with 2 μl of 50 mg/ml γ-globulin and 50 μl of 30% PEG6000, 50 mM Tris-HCl (pH 8.0), and incubated for 5 min on ice. Non-specific binding was measured in the presence of 10 μM cold IP3. After centrifugation at 20,000×g for 5 min, the precipitate was dissolved in SOLVABLE™ (Packard) and the radioactivity was measured with a liquid scintillation counter (Beckman Coulter). Results are shown as the mean±S.D. from three independent experiments. (B) Purified His-IRBIT expressed in Sf9 cells was incubated with alkaline phosphatase for 30 min at 37° C. prior to the IP3 binding assay described as in (A). (C and D) Scatchard analysis. 0.1 μg of GST-EL was incubated with or without 1 μg of purified His-tagged IRBIT expressed in Sf9 cells as described in (A). Then 2.17 nM [^3H]IP3 and 2-500 nM cold IP3 were added to the samples and incubated for 10 min on ice (total volume was 100 μl). Non-specific binding was measured in the presence of 10 μM cold IP3. [^3H]IP3 binding to GST-EL was measured as described in (A).
The effect of IRBIT on binding of IP3 to IP3R was examined. GST-EL (0.2 μg) was incubated with 0.1, 1, or 10 μg of purified His-tagged IRBIT expressed in Sf9 cells or E. coli in a solution containing 50 mM Tris-HCl (pH 8.0), 1 mM EDTA, and 1 mM 2-mercaptoethanol, for 30 min on ice. Then 8.7 nM [^3H]IP3 (PerkinElmer Life Sciences) was added to the samples and incubated for 10 min on ice (total volume was 50 μl). The samples were mixed with 2 μl of 50 mg/ml γ-globulin and 50 μl of 30% PEG6000, 50 mM Tris-HCl (pH 8.0), and incubated for 5 min on ice. Non-specific binding was measured in the presence of 10 μM cold IP3. After centrifugation at 20,000×g for 5 min, the precipitate was dissolved in SOLVABLE™ (Packard) and the radioactivity was measured with a liquid scintillation counter (Beckman Coulter). […] 0.1 μg of GST-EL was incubated with or without 1 μg of purified His-tagged IRBIT expressed in Sf9 cells as described in (A). Then 2.17 nM [^3H]IP3 and 2-500 nM cold IP3 were added to the samples and incubated for 10 min on ice (total volume was 100 μl). Non-specific binding was measured in the presence of 10 μM cold IP3. [^3H]IP3 binding to GST-EL was measured as described in (A). […] Bmax was not changed.

[2] = S-adenosylhomocysteine hydrolase activity in the hydrolytic direction; format: biochemical; details: recombinant protein expressed in Escherichia coli; hydrolysis direction
Experimental: The S-adenosylhomocysteine hydrolase activity in the hydrolytic direction of recombinant IRBIT-His (open circle), GST-IRBIT (triangle), GST (square), and S-adenosylhomocysteine hydrolase (closed circle) were measured according to the known method (43). Results are shown as the mean±standard deviation from three independent experimental results.
To assay S-adenosylhomocysteine hydrolase activity in the hydrolytic direction, the color developed by the reaction between the product (Homocysteine) and 5,5′-dithiobis (2-nitrobenzoic acid) (Sigma) was measured spectroscopically using the purified IRBIT-His (3.0 μg), GST-IRBIT (4.3 μg), GST (1.3 μg) and rabbit S-adenosylhomocysteine hydrolase (Sigma) (2.4 μg), according to the known method (43). Absorbance at 412 nm was measured 0, 5, 20 and 60 minutes later using a DU 640 spectrophotometer (Beckman). Results are shown as the mean±standard deviation from three independent experiments (FIG. 2).

[3] = 1 μg His-tagged IRBIT (Sf9), 0.1 μg GST-EL

T1 sequence (P11881 1-2217 N1264K): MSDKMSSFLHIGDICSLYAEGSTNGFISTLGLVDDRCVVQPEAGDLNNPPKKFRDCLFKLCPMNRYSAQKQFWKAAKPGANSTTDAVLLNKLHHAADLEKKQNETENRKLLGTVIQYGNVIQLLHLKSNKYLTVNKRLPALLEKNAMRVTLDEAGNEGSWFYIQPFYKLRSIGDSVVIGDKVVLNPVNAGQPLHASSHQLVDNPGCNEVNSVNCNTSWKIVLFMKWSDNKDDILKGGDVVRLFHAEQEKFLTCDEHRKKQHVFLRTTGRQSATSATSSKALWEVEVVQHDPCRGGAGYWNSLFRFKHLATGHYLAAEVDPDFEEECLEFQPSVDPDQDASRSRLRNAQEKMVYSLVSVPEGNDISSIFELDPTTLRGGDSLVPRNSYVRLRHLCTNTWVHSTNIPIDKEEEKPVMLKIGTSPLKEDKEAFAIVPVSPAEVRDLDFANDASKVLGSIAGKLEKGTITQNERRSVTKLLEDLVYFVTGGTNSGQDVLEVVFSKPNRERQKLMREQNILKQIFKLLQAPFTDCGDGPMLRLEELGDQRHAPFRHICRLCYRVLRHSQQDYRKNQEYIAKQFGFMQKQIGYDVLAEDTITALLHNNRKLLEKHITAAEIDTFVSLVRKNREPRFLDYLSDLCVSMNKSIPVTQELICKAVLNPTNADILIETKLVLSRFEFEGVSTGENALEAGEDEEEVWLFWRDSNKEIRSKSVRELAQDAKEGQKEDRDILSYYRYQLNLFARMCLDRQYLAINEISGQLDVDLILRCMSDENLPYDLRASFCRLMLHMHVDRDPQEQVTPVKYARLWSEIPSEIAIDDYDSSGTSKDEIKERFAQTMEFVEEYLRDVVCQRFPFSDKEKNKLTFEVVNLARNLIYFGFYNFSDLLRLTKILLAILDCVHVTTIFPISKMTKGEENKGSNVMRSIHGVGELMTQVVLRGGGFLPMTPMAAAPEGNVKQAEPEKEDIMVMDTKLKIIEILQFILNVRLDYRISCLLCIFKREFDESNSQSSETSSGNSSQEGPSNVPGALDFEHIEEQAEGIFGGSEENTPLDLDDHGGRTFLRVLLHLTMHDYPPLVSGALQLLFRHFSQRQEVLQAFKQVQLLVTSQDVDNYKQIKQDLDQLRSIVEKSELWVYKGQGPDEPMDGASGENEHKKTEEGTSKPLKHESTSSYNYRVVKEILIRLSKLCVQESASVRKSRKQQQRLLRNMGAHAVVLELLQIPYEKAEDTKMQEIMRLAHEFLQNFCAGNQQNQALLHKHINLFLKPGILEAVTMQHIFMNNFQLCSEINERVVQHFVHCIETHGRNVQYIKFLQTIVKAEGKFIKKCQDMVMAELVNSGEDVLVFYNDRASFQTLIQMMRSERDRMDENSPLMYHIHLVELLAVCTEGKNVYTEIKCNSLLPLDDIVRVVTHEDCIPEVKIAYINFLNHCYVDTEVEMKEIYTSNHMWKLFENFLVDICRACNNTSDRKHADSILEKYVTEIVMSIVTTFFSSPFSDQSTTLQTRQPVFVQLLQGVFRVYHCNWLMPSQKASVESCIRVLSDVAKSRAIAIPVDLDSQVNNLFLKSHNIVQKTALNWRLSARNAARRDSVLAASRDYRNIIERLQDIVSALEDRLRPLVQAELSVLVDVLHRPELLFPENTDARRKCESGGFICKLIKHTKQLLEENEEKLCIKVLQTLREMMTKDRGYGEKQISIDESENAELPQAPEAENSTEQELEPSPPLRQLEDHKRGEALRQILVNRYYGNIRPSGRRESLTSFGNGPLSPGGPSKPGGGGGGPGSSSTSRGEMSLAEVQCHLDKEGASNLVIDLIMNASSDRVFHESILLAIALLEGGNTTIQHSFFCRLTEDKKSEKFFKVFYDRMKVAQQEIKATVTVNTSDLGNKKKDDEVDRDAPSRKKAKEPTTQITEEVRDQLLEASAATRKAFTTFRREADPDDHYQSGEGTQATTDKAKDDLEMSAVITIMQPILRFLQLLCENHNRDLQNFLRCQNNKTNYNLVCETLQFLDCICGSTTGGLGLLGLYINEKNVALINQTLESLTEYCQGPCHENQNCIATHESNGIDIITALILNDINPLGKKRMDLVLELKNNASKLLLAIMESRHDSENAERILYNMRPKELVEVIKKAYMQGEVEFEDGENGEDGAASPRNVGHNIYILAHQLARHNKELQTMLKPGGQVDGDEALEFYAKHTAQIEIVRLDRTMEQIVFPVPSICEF

Molecule	Bmax (Scatchard analysis) [1, 3]	affinity of GST-EL to IP3 (Scatchard analysis) [1, 3]	effect on IP3 binding of GST-EL ([1]; 0.1, 1 or 10 μg His-tagged IRBIT expressed in Sf9, 8.7 nM [3H]IP3)	S-adenosylhomocysteine hydrolase activity [2]
B1	not changed	decreased the affinity	dose-dependently suppressed	
B2				neither of the recombinant IRBITs had enzyme activity
B3				neither of the recombinant IRBITs had enzyme activity
